US20230398228A1, “ERIBULIN-BASED ANTIBODY-DRUG CONJUGATES AND METHODS OF USE” (EISAI R&D MANAGEMENT CO., LTD., priority 2016, published 2023)

Columns and labels:
[1] = SEC-HPLC aggregation analysis; format: physicochemical
Procedure: The antibody aggregation was analyzed by size-exclusion, high-performance liquid chromatography (SEC-HPLC) using an Agilent 1100. The mAb was diluted to 1 mg/mL in DPBS. The antibody (20 μL) was injected onto a TSKgel® SuperSW guard column (4.6 mm×3.5 cm, 4 μm pore size, Tosoh Bioscience), followed by a TSKgel® SuperSW3000 column (4.6 mm×30 cm, 4 μm pore size), eluted from the column with 0.1 M sodium phosphate containing 0.15 M NaCl and 0.05% NaN3, at pH 7.4, at a flow rate of 0.3 mL/min for 20 min. All data were analyzed using Agilent ChemStation software. Percent aggregation was calculated as [PAaggregate/PAtotal]*100, where PA=integrated peak area.
ADC was diluted to 1 mg/mL in DPBS. ADC (10 μL) was then injected onto an Advanced SEC 300A guard column (4.6 mm×3.5 cm, 2.7 μm pore size, Agilent), followed by a AdvancedBio 300A column (4.6 mm×30 cm, 2.7 μm pore size). ADC was eluted from the column with 0.1 M sodium phosphate containing 0.15 M NaCl and 5% IPA, pH 7.4 at a flow rate of 0.25 mL/min for 28 min. All data were analyzed using Agilent ChemStation software. Percent aggregation was calculated as [PAaggregate/PAtotal]*100, where PA=integrated peak area.

[2] = molecular target: human mesothelin (Homo sapiens, UniProt Q13421); assay: ELISA, mesothelin; format: binding; details: MORAb-009 and its ADCs; for EC50: read-out: Antigen Binding ELISA, EC50
Procedure: Recombinant human mesothelin was diluted to 1 μg/mL in coating buffer (50 mM carbonate-bicarbonate buffer, pH 9.6), and coated onto 96-well Maxisorp black plates (Thermo, Cat No. 43711, 100 μL/well) at 4° C., overnight. Coating solution was discarded and the plates were washed three times using 1×PBS with 0.05% Tween-20 (PBST) buffer. Plates were blocked in 300 μL blocking buffer (1% BSA in PBST) at room temperature for 2 hours on an orbital shaker. […] Blocking buffer was discarded and 100 μL/well of diluted antibody was added to the plates. Plates were incubated at room temperature for 2 hours on an orbital shaker. Antibody solution was discarded and plates were washed three times using PBST. 100 μL/well of goat-anti-human IgG (H+L)-HRP (1:10,000 dilution in blocking buffer) solution was added to the plates, and plates were incubated at room temperature for 1 hour on an orbital shaker. Secondary antibody solution was discarded and plates were washed three times using PBST. 100 μL/well of QuantaBlu fluorogenic peroxidase substrate working solution (Thermo, Cat No. 15169) was added to the plates, and plates were incubated at room temperature for 30 min. Fluorescence was read at excitation 325 nm/emission 420 nm using a SpectraMax M5 (Molecular Devices). Data was analyzed using SoftMaxPro 5.4.2 software with 4-parameter fitting.

[3] = tested on: IGROV1 cells; assay: Crystal Violet cytotoxicity assay (Example 4), IGROV1; format: cell-based, human; details: mean of replicate experiments, read-out: Cytotoxicity IC50 (nM), IGROV1 (FR^hi, MSLN^neg)
Procedure: Test reagents were serial diluted 1:3 in 2 mL deep-well dilution plates, starting at 200 nM (10 dilutions total). […] Medium was then discarded. […] Plates were read at 570 nm. Data was analyzed using GraphPad Prism 6.

[4] = tested on: A431 cells; assay: Crystal Violet cytotoxicity assay (Example 4), A431 (parental); format: cell-based, human; details: mean of replicate experiments, read-out: Cytotoxicity IC50 (nM), A431 (FR^neg, MSLN^neg)

| Substance | SEC-HPLC Analysis % Aggr. [1] [%] | SEC-HPLC Analysis % Frag. [1] [%] | SEC-HPLC Analysis % Monomer [1] [%] | Antigen Binding ELISA, EC50 [2] [µg/mL] | EC50 [2] [nM] | IC50 [3] [nM] | IC50 [4] [nM] |
| --- | --- | --- | --- | --- | --- | --- | --- |
| MORAb009-PEG2-eribulin | 1.15 | 1.74 | 97.11 | 0.00884 | 0.06 | 42.8 | > 100 |
| MORAb009-PEG4-eribulin | 1.03 | 1.84 | 97.13 | 0.0116 | 0.08 | 76.3 | > 100 |
